Measurements reported in US20250027945A1.

Legend:
[1] = molecular target: human RYK on the surface of human tumor cell lines (human) (UniProt P34925); assay: flow cytometry, REH cells (ALL), isotype matched control mAb, equal amount
[2] = molecular target: human RYK on the surface of human tumor cell lines (human) (UniProt P34925); assay: flow cytometry, EW36 cells (NHL), isotype matched control mAb, equal amount
[3] = molecular target: human RYK on the surface of human tumor cell lines (human) (UniProt P34925); assay: flow cytometry, K562 cells (CML), isotype matched control mAb, equal amount
[4] = molecular target: human RYK on the surface of human tumor cell lines (human) (UniProt P34925); assay: flow cytometry, MEC1 cells (CLL), isotype matched control mAb, equal amount
[5] = molecular target: human RYK on the surface of human tumor cell lines (human) (UniProt P34925); assay: flow cytometry, A549 cells (lung), isotype matched control mAb, equal amount
[6] = molecular target: human RYK on the surface of human tumor cell lines (human) (UniProt P34925); assay: flow cytometry, H292 cells (lung), isotype matched control mAb, equal amount
[7] = molecular target: human RYK on the surface of human tumor cell lines (human) (UniProt P34925); assay: flow cytometry, H446 cells (lung), isotype matched control mAb, equal amount
[8] = molecular target: human RYK on the surface of human tumor cell lines (human) (UniProt P34925); assay: flow cytometry, H460 cells (lung), isotype matched control mAb, equal amount
[9] = molecular target: human RYK on the surface of human tumor cell lines (human) (UniProt P34925); assay: flow cytometry, NALM6 cells (ALL), isotype matched control mAb, equal amount
[10] = molecular target: human RYK on the surface of human tumor cell lines (human) (UniProt P34925); assay: flow cytometry, HT144 cells (skin), isotype matched control mAb, equal amount
[11] = molecular target: human RYK on the surface of human tumor cell lines (human) (UniProt P34925); assay: flow cytometry, HT29 cells (colon), isotype matched control mAb, equal amount
[12] = molecular target: human RYK on the surface of human tumor cell lines (human) (UniProt P34925); assay: flow cytometry, HS683 cells (brain), isotype matched control mAb, equal amount
[13] = molecular target: human RYK on the surface of human tumor cell lines (human) (UniProt P34925); assay: flow cytometry, JEKO cells (mantle), isotype matched control mAb, equal amount
[14] = molecular target: human RYK on the surface of human tumor cell lines (human) (UniProt P34925); assay: flow cytometry, MCF7 cells (breast), isotype matched control mAb, equal amount
[15] = molecular target: human RYK on the surface of human tumor cell lines (human) (UniProt P34925); assay: flow cytometry, MINO cells (mantle), isotype matched control mAb, equal amount
[16] = molecular target: human RYK on the surface of human tumor cell lines (human) (UniProt P34925); assay: flow cytometry, SW620 cells (colon), isotype matched control mAb, equal amount
[17] = molecular target: human RYK on the surface of human tumor cell lines (human) (UniProt P34925); assay: flow cytometry, SW948 cells (colon), isotype matched control mAb, equal amount
[18] = molecular target: human RYK on the surface of human tumor cell lines (human) (UniProt P34925); assay: flow cytometry, T24 cells (bladder), isotype matched control mAb, equal amount
[19] = molecular target: human RYK on the surface of human tumor cell lines (human) (UniProt P34925); assay: flow cytometry, BT549 cells (breast), isotype matched control mAb, equal amount
[20] = molecular target: human RYK on the surface of human tumor cell lines (human) (UniProt P34925); assay: flow cytometry, PC3 cells (prostate), isotype matched control mAb, equal amount
[21] = molecular target: human RYK on the surface of human tumor cell lines (human) (UniProt P34925); assay: flow cytometry, SKBR3 cells (breast), isotype matched control mAb, equal amount
[22] = molecular target: human RYK on the surface of human tumor cell lines (human) (UniProt P34925); assay: flow cytometry, T47-D cells (breast), isotype matched control mAb, equal amount
[23] = molecular target: human RYK on the surface of human tumor cell lines (human) (UniProt P34925); assay: flow cytometry, NCI H226 cells (lung), isotype matched control mAb, equal amount
[24] = molecular target: human RYK on the surface of human tumor cell lines (human) (UniProt P34925); assay: flow cytometry, SH-SY5Y cells (brain), isotype matched control mAb, equal amount
[25] = molecular target: human RYK on the surface of human tumor cell lines (human) (UniProt P34925); assay: flow cytometry, SK-MEL-2 cells (skin), isotype matched control mAb, equal amount
[26] = molecular target: human RYK on the surface of human tumor cell lines (human) (UniProt P34925); assay: flow cytometry, SK-MES-1 cells (lung), isotype matched control mAb, equal amount
[27] = molecular target: human RYK on the surface of human tumor cell lines (human) (UniProt P34925); assay: flow cytometry, HS-578T cells (breast), isotype matched control mAb, equal amount
[28] = molecular target: human RYK on the surface of human tumor cell lines (human) (UniProt P34925); assay: flow cytometry, NCI H1155 cells (lung), isotype matched control mAb, equal amount
[29] = molecular target: human RYK on the surface of human tumor cell lines (human) (UniProt P34925); assay: flow cytometry, OVCAR4 cells (ovarian), isotype matched control mAb, equal amount
[30] = molecular target: human RYK on the surface of human tumor cell lines (human) (UniProt P34925); assay: flow cytometry, DU-145 cells (prostate), isotype matched control mAb, equal amount
[31] = molecular target: human RYK on the surface of human tumor cell lines (human) (UniProt P34925); assay: flow cytometry, SK-OV-3 cells (ovarian), isotype matched control mAb, equal amount
[32] = molecular target: human RYK on the surface of human tumor cell lines (human) (UniProt P34925); assay: flow cytometry, CAPAN-1 cells (pancreas), isotype matched control mAb, equal amount
[33] = molecular target: human RYK on the surface of human tumor cell lines (human) (UniProt P34925); assay: flow cytometry, CAPAN-2 cells (pancreas), isotype matched control mAb, equal amount
[34] = molecular target: human RYK on the surface of human tumor cell lines (human) (UniProt P34925); assay: flow cytometry, MOLT4 cells (T-cell ALL), isotype matched control mAb, equal amount
[35] = molecular target: human RYK on the surface of human tumor cell lines (human) (UniProt P34925); assay: flow cytometry, RAJI cells (Burkitt NHL), isotype matched control mAb, equal amount
[36] = molecular target: human RYK on the surface of human tumor cell lines (human) (UniProt P34925); assay: flow cytometry, COLO 829 cells (melanoma), isotype matched control mAb, equal amount
[37] = molecular target: human RYK on the surface of human tumor cell lines (human) (UniProt P34925); assay: flow cytometry, JURKAT cells (T-cell ALL), isotype matched control mAb, equal amount
[38] = molecular target: human RYK on the surface of human tumor cell lines (human) (UniProt P34925); assay: flow cytometry, MDA-MB-231 cells (breast), isotype matched control mAb, equal amount
[39] = molecular target: human RYK on the surface of human tumor cell lines (human) (UniProt P34925); assay: flow cytometry, RAMOS cells (Burkitt NHL), isotype matched control mAb, equal amount
[40] = molecular target: human RYK on the surface of human tumor cell lines (human) (UniProt P34925); assay: flow cytometry, A673 cells (Ewings sarcoma), isotype matched control mAb, equal amount
[41] = molecular target: human RYK on the surface of human tumor cell lines (human) (UniProt P34925); assay: flow cytometry, U937 cells (monocyte cancer), isotype matched control mAb, equal amount
[42] = molecular target: human RYK on the surface of human tumor cell lines (human) (UniProt P34925); assay: flow cytometry, HELA cells (ovarian as printed), isotype matched control mAb, equal amount
[43] = molecular target: human RYK on the surface of human tumor cell lines (human) (UniProt P34925); assay: flow cytometry, NCI H929 cells (melanoma as printed), isotype matched control mAb, equal amount
[44] = molecular target: human RYK on the surface of human tumor cell lines (human) (UniProt P34925); assay: flow cytometry of dissociated primary triple-negative breast cancer PDX cells M0026 (T1), fluorochrome-conjugated isotype control mAb; count 15903

Chain of human RYK on the surface of human tumor cell lines (human) (P34925 46-607 limits assumed, form in doubt): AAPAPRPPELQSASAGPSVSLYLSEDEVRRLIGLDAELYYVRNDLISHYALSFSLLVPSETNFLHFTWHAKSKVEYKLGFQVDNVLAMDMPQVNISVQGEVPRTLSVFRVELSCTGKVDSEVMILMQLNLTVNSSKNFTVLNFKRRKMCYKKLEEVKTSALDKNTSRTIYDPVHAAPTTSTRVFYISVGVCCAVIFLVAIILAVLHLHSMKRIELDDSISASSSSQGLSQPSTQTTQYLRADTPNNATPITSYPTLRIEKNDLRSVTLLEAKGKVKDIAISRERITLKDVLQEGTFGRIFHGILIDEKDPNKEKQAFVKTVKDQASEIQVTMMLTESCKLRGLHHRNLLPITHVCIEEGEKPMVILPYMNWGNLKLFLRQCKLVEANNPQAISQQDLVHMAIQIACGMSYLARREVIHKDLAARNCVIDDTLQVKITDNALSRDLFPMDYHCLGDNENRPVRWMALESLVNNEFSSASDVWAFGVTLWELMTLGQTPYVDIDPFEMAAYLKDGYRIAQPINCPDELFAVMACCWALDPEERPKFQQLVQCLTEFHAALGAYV

- MFI [1]: 7.4
- MFI [2]: 5.6
- MFI [3]: 2.8
- MFI [4]: 4.3
- MFI [5]: 4.8
- MFI [6]: 107
- MFI [7]: 23.3
- MFI [8]: 58
- MFI [9]: 5.7
- MFI [10]: 126
- MFI [11]: 100
- MFI [12]: 229
- MFI [13]: 3.9
- MFI [14]: 5.2
- MFI [15]: 7.6
- MFI [16]: 5.6
- MFI [17]: 30.7
- MFI [18]: 72.6
- MFI [19]: 197
- MFI [20]: 2.8
- MFI [21]: 73.9
- MFI [22]: 25.7
- MFI [23]: 6
- MFI [24]: 4.1
- MFI [25]: 7
- MFI [26]: 156
- MFI [27]: 7.3
- MFI [28]: 6.2
- MFI [29]: 61
- MFI [30]: 3.2
- MFI [31]: 5.6
- MFI [32]: 86.9
- MFI [33]: 4.7
- MFI [34]: 5.1
- MFI [35]: 6.4
- MFI [36]: 6.9
- MFI [37]: 5.7
- MFI [38]: 8.3
- MFI [39]: 6.1
- MFI [40]: 52
- MFI [41]: 6.7
- MFI [42]: 6.1
- MFI [43]: 43.8
- Median : Comp-Alexa Fluor 647-A [44]: 39.9
Substance: isotype matched control mAb (antibody)
